The values that follow are results of earlier work, collected in paper PMC6746776.

In general, Kd refers to the equilibrium constant for the complex coming apart.

The target of this series is p63 TAD TAD (Homo sapiens) (UniProt Q9H3D4).
Sequence of p63 TAD TAD (Homo sapiens) (Q9H3D4 1-107): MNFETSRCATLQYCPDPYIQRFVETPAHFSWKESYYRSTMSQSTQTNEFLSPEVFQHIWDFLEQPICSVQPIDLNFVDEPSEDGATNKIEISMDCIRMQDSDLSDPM

Sequence of p300 Taz2 (Q09472 1723-1812): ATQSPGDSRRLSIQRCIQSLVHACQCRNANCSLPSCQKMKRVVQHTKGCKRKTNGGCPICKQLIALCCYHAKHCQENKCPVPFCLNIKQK

As for p300 Taz2 (from UniProt Q09472), the Kd was 196 nM.
